{"source": "IntAct's records for PubMed 31515488", "parents": {"B1": {"name": "Zinc finger protein RFP (Homo sapiens), P14373 (parent)", "chain": "MASGSVAECLQQETTCPVCLQYFAEPMMLDCGHNICCACLARCWGTAETNVSCPQCRETFPQRHMRPNRHLANVTQLVKQLRTERPSGPGGEMGVCEKHREPLKLYCEEDQMPICVVCDRSREHRGHSVLPLEEAVEGFKEQIQNQLDHLKRVKDLKKRRRAQGEQARAELLSLTQMEREKIVWEFEQLYHSLKEHEYRLLARLEELDLAIYNSINGAITQFSCNISHLSSLIAQLEEKQQQPTRELLQDIGDTLSRAERIRIPEPWITPPDLQEKIHIFAQKCLFLTESLKQFTEKMQSDMEKIQELREAQLYSVDVTLDPDTAYPSLILSDNLRQVRYSYLQQDLPDNPERFNLFPCVLGSPCFIAGRHYWEVEVGDKAKWTIGVCEDSVCRKGGVTSAPQNGFWAVSLWYGKEYWALTSPMTALPLRTPLQRVGIFLDYDAGEVSFYNVTERCHTFTFSHATFCGPVRPYFSLSYSGGKSAAPLIICPMSGIDGFSGHVGNHGHSMETSP", "partner": "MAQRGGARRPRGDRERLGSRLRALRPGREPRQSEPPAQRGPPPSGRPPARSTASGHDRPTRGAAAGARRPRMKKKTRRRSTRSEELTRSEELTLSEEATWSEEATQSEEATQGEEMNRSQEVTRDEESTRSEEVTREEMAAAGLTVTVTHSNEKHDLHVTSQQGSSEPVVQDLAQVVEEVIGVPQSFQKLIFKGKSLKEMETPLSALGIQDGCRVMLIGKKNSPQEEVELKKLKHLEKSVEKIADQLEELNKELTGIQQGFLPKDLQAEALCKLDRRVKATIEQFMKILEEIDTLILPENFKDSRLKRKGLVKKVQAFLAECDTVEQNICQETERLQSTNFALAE"}, "B2": {"name": "Four and a half LIM domains protein 2 (Homo sapiens), Q14192 (parent)", "chain": "MTERFDCHHCNESLFGKKYILREESPYCVVCFETLFANTCEECGKPIGCDCKDLSYKDRHWHEACFHCSQCRNSLVDKPFAAKEDQLLCTDCYSNEYSSKCQECKKTIMPGTRKMEYKGSSWHETCFICHRCQQPIGTKSFIPKDNQNFCVPCYEKQHAMQCVQCKKPITTGGVTYREQPWHKECFVCTACRKQLSGQRFTARDDFAYCLNCFCDLYAKKCAGCTNPISGLGGTKYISFEERQWHNDCFNCKKCSLSLVGRGFLTERDDILCPDCGKDI"}, "B3": {"name": "cGMP-dependent protein kinase 1 (Homo sapiens), Q13976 (parent)", "chain": "MSELEEDFAKILMLKEERIKELEKRLSEKEEEIQELKRKLHKCQSVLPVPSTHIGPRTTRAQGISAEPQTYRSFHDLRQAFRKFTKSERSKDLIKEAILDNDFMKNLELSQIQEIVDCMYPVEYGKDSCIIKEGDVGSLVYVMEDGKVEVTKEGVKLCTMGPGKVFGELAILYNCTRTATVKTLVNVKLWAIDRQCFQTIMMRTGLIKHTEYMEFLKSVPTFQSLPEEILSKLADVLEETHYENGEYIIRQGARGDTFFIISKGTVNVTREDSPSEDPVFLRTLGKGDWFGEKALQGEDVRTANVIAAEAVTCLVIDRDSFKHLIGGLDDVSNKAYEDAEAKAKYEAEAAFFANLKLSDFNIIDTLGVGGFGRVELVQLKSEESKTFAMKILKKRHIVDTRQQEHIRSEKQIMQGAHSDFIVRLYRTFKDSKYLYMLMEACLGGELWTILRDRGSFEDSTTRFYTACVVEAFAYLHSKGIIYRDLKPENLILDHRGYAKLVDFGFAKKIGFGKKTWTFCGTPEYVAPEIILNKGHDISADYWSLGILMYELLTGSPPFSGPDPMKTYNIILRGIDMIEFPKKIAKNAANLIKKLCRDNPSERLGNLKNGVKDIQKHKWFEGFNWEGLRKGTLTPPIIPSVASPTDTSNFDSFPEDNDEPPPDDNSGWDIDF"}, "B4": {"name": "LHFPL tetraspan subfamily member 5 protein (Homo sapiens), Q8TAF8 (parent)", "chain": "MVKLLPAQEAAKIYHTNYVRNSRAVGVMWGTLTICFSVLVMALFIQPYWIGDSVNTPQAGYFGLFSYCVGNVLSSELICKGGPLDFSSIPSRAFKTAMFFVALGMFLIIGSIICFSLFFICNTATVYKICAWMQLAAATGLMIGCLVYPDGWDSSEVRRMCGEQTGKYTLGHCTIRWAFMLAILSIGDALILSFLAFVLGYRQDKLLPDDYKADGTEEV", "partner": "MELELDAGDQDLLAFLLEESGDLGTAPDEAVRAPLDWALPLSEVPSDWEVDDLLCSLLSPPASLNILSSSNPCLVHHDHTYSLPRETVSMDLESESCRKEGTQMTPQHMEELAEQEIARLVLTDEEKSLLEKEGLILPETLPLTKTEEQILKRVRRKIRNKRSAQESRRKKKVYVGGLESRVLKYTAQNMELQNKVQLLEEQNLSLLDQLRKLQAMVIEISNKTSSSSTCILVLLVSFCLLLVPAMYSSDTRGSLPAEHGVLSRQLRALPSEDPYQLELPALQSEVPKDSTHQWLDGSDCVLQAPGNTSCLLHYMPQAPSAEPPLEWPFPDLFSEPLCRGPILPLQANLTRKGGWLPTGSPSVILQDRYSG"}, "B5": {"name": "Ubiquitin-like protein 4B (Homo sapiens), Q8N7F7 (parent)", "chain": "MFLTVKLLLGQRCSLKVSGQESVATLKRLVSRRLKVPEEQQHLLFRGQLLEDDKHLSDYCIGPNASINVIMQPLEKMALKEAHQPQTQPLWHQLGLVLAKHFEPQDAKAVLQLLRQEHEERLQKISLEHLEQLAQYLLAEEPHVEPAGERELEAKARPQSSCDMEEKEEAAADQ", "partner": "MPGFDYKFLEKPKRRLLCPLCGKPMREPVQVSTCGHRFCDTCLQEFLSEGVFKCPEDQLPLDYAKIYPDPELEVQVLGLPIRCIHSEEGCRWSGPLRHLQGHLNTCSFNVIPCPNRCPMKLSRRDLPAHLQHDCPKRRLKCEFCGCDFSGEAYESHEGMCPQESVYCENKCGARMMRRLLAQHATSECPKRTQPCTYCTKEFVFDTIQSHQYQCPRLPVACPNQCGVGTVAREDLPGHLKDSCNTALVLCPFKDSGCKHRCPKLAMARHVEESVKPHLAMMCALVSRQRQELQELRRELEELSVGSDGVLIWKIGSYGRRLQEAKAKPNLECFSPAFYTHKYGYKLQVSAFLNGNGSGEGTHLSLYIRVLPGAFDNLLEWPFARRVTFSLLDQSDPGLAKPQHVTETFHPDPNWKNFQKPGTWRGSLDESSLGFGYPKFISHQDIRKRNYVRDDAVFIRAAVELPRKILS"}, "B6": {"name": "Mothers against decapentaplegic homolog 4 (Homo sapiens), Q13485 (parent)", "chain": "MDNMSITNTPTSNDACLSIVHSLMCHRQGGESETFAKRAIESLVKKLKEKKDELDSLITAITTNGAHPSKCVTIQRTLDGRLQVAGRKGFPHVIYARLWRWPDLHKNELKHVKYCQYAFDLKCDSVCVNPYHYERVVSPGIDLSGLTLQSNAPSSMMVKDEYVHDFEGQPSLSTEGHSIQTIQHPPSNRASTETYSTPALLAPSESNATSTANFPNIPVASTSQPASILGGSHSEGLLQIASGPQPGQQQNGFTGQPATYHHNSTTTWTGSRTAPYTPNLPHHQNGHLQHHPPMPPHPGHYWPVHNELAFQPPISNHPAPEYWCSIAYFEMDVQVGETFKVPSSCPIVTVDGYVDPSGGDRFCLGQLSNVHRTEAIERARLHIGKGVQLECKGEGDVWVRCLSDHAVFVQSYYLDREAGRAPGDAVHKIYPSAYIKVFDLRQCHRQMQQQAATAQAAAAAQAAAVAGNIPGPGSVGGIAPAISLSAAAGIGVDDLRRLCILRMSFVKGWGPDYPRQSIKETPCWIEIHLHRALQLLDEVLHTMPIADPQPLD"}}, "data": [{"variants_of": "B1", "conditions": "with bag1_human BAG1, Q99933", "values": [{"variant": "MASGSVAECLQQETTCPVCLQYFAEPMMLDCGHNICCACLARCWGTAETNVSCPQCRETFPQRHMRPNRHLANVTQLVKQLRTERPSGPGGEMGVCEKHREPLKLYCEEDQMPICVVCDRSREHRGHSVLPLEEAVEGFKEQIQNQLDHLKRVKDLKKRRRAQGEQARAELLSLTQMEREKIVWEFEQLYHSLKEHEYRLLARLEELDLAIYNSINGAITQFSCNISHLSSLIAQLEEKQQQPTRELLQDIGDTLSRAERIRIPEPWITPPDLQEKIHIFAQKCLFLTESLKQFTEKMQSDMEKIQELREAQLYSVDVTLDPDTAYPSLILSDNLRQVRYSYLQQDLPDNPERFSLFPCVLGSPCFIAGRHYWEVEVGDKAKWTIGVCEDSVCRKGGVTSAPQNGFWAVSLWYGKEYWALTSPMTALPLRTPLQRVGIFLDYDAGEVSFYNVTERCHTFTFSHATFCGPVRPYFSLSYSGGKSAAPLIICPMSGIDGFSGHVGNHGHSMETSP", "note": "[N355S]", "effect of a mutation on the interaction": "with no effect"}]}, {"variants_of": "B2", "conditions": "with inca1_human INCA1, Q0VD86", "values": [{"variant": "MTERFDCHHCNESLFGKKYILREESPYCVVCFETLFSNTCEECGKPIGCDCKDLSYKDRHWHEACFHCSQCRNSLVDKPFAAKEDQLLCTDCYSNEYSSKCQECKKTIMPGTRKMEYKGSSWHETCFICHRCQQPIGTKSFIPKDNQNFCVPCYEKQHAMQCVQCKKPITTGGVTYREQPWHKECFVCTACRKQLSGQRFTARDDFAYCLNCFCDLYAKKCAGCTNPISGLGGTKYISFEERQWHNDCFNCKKCSLSLVGRGFLTERDDILCPDCGKDI", "note": "[A37S]", "effect of a mutation on the interaction": "with no effect"}]}, {"variants_of": "B2", "conditions": "with gbg12_human GNG12, Q9UBI6", "values": [{"variant": "MTERFDCHHCNESLFGKKYILREESPYCVVCFETLFANTCEECGKPIGCDCKDLSYKDRHWHEACFHCSQCRNSLVDKPFAAKEDQLLCTDCYSNEYSSKCQECKKTIMPGTRKMEYKGSSWHETCFICHRCQQPIGTKSFIPKDNQNFCVPCYEKQHAMQCVQCKKPITTGGVTYQEQPWHKECFVCTACRKQLSGQRFTARDDFAYCLNCFCDLYAKKCAGCTNPISGLGGTKYISFEERQWHNDCFNCKKCSLSLVGRGFLTERDDILCPDCGKDI", "note": "[R177Q]", "effect of a mutation on the interaction": "with no effect"}]}, {"variants_of": "B3", "conditions": "with rbtn2_human LMO2, P25791", "values": [{"variant": "N267S", "effect of a mutation on the interaction": "with no effect"}]}, {"variants_of": "B3", "conditions": "with zn646_human ZNF646, O15015", "values": [{"variant": "N267S", "effect of a mutation on the interaction": "with no effect"}]}, {"variants_of": "B4", "conditions": "with creb3_human CREB3, O43889", "values": [{"variant": "MVKLLPAQEAAKIYHTNYVRNSRAVGVMWGTLTICFSVLVMALFIQPYWIGDSVNTPQAGYFGLFSYCVGNVLSSELICKGGPLDFSSIPSRAFKTAMFFVALGMFLIIGSIICFSLFFICNTATVYKICAWMQLAAATGLMIGCLVYPDGWDSSEVRRMCGEQTGKYTLGHCTIRWAFMLAILSIGDALILSFLAFVLGYRQDNLLPDDYKADGTEEV", "note": "[K205N]", "effect of a mutation on the interaction": "with no effect"}]}, {"variants_of": "B5", "conditions": "with traf4_human TRAF4, Q9BUZ4", "values": [{"variant": "MFLTVKLLLGQRCSLKVSGQESVATLKRLVSRRLKVPEEQQHLLFRGQLLEDDKHLSDYCIGPNASINVIMQPLEKMALKEAHQPQTQPLWHQLGLVLAKHFEPQDAKAVLQLLRQEHEEHLQKISLEHLEQLAQYLLAEEPHVEPAGERELEAKARPQSSCDMEEKEEAAADQ", "note": "[R121H]", "effect of a mutation on the interaction": "disrupting interaction strength"}]}, {"variants_of": "B6", "conditions": "with smad3_human SMAD3, P84022", "values": [{"variant": "M294V", "effect of a mutation on the interaction": "with no effect"}, {"variant": "R76I", "effect of a mutation on the interaction": "with no effect"}, {"variant": "L533R", "effect of a mutation on the interaction": "disrupting interaction strength"}, {"variant": "L533F", "effect of a mutation on the interaction": "disrupting interaction strength"}, {"variant": "R361C", "effect of a mutation on the interaction": "disrupting interaction strength"}]}, {"variants_of": "B6", "conditions": "with ews_human EWSR1, Q01844", "values": [{"variant": "R76I", "effect of a mutation on the interaction": "with no effect"}, {"variant": "L533F", "effect of a mutation on the interaction": "with no effect"}]}, {"variants_of": "B6", "conditions": "with smad9_human SMAD9, O15198", "values": [{"variant": "L533R", "effect of a mutation on the interaction": "disrupting interaction strength"}, {"variant": "R361C", "effect of a mutation on the interaction": "disrupting interaction strength"}]}]}
